Results from US7265263B1, “Potato transcription factors, methods of use thereof, and a method for enhancing tuber development” (Iowa State University Research Foundation, Inc., priority 2002, dated 2007).

What was measured:
ga20ox1 promoter = assay: Transcription assay, GUS reporter driven by ga20ox1 promoter in tobacco protoplasts; type: cell-based, potato
Excerpt: The cauliflower mosaic virus (CaMV) 35S promoter in pBI221 (Clontech, Palo Alto, Calif.) was replaced by an enhancer fragment (-832 to -50) of the 35S promoter plus 980 bp of the ga20ox1 promoter to generate the pGAOP::β-glucuronidase (GUS) reporter construct. With this construct, the reporter GUS transcription level is augmented but its transcription may still be affected by the ga20ox1 promoter. A CaMV 35S promoter-driven luciferase (LUC) construct 35S-LUC (obtained from Dr. Takahashi, Dept. of Biological Sciences, Graduate School of Science, Univ. of Tokyo, Japan) was used as an internal control. Effector constructs were also generated by using pBI221 vector as a backbone, with the GUS gene replaced by the full-length cDNAs of either StBEL-05 or POTH1, downstream of the CaMV 35S promoter. Truncated cDNAs that encode the N-terminal protein-binding domains of StBEL-05 or POTH1 were used to generate the dominant negative constructs, StBEL5ΔC295 and POTH1ΔC122, respectively. The reporter construct with the mutated promoter was generated by site-directed PCR mutagenesis with oligos 5′-CTATTTGACTTC*ACACGGTTATTT-3′ (SEQ ID NO:23) and 5′-AAATAACCGTGTG*AAGTCAAATAG-3′ (SEQ ID NO:24).
Fully expanded leaves from three- to four-week-old tobacco plants were excised and placed in K3 basal media (Kao et al., “Nutritional Requirements for Growth of Vicia hajastana Cells and Protoplasts at a Very Low Density in Liquid Media,” Planta 126:105-110 (1975), which is hereby incorporated by reference in its entirety) supplemented with 0.4 M sucrose, 0.25% (w-v) cellulases (Karlan Research Products, Santa Rosa, CA), and 0.05% (w-v) macerases (Calbiochem, La Jolla, Calif.) and incubated for overnight at 28° C. After incubation, the liberated protoplasts were filtered through sterile cheesecloth into a Babcock bottle, and centrifuged for 10 minutes at 1000 rpm. Protoplasts were collected from the bottleneck area and washed once in K3 media with 0.4 M sucrose and resuspended in K3 media containing 0.4 M glucose to a final concentration of 4×10^6 protoplasts per milliliter. […]
(§1) Luciferase assays were performed by injecting 100-μL luciferase substrate (Promega, Madison, Wis.) into 20 μL of extract and measuring the emitted photons for 15 seconds in a TD-20 luminometer (Turner Designs, Sunnyvale, Calif.). […] A fluorescence multiwell plate reader, Fluoroskan II (MTX labs, Vienna, Va.), was used to measure GUS activity at 365 nm (excitation) and 455 nm (emission). Each sample was measured three times for both LUC and GUS activity. Relative GUS-LUC activity was calculated by dividing the ratio of GUS activity to LUC activity from different effectors with the ratio from reporter plasmid alone. Relative activities calculated from three transfection replications were presented as a mean±SE.

CaMV 35S promoter = assay: Transcription assay, GUS reporter driven by CaMV 35S promoter in tobacco protoplasts; type: cell-based, cauliflower mosaic virus
Description: FIGS. 24A-C show schematics of constructs (FIG. 24A) and the repression effect of StBEL-05 and POTH1 on the ga20ox1 promoter (FIG. 24B) and on the 35S CaMV promoter (FIG. 24C). The construct with the LUC gene under the control of the cauliflower mosaic virus (CaMV) 35S promoter was used as an internal control. Each transfection was performed three times. Relative GUS-LUC activity was calculated with reporter alone set as 100%. Data are means±SE.
For each transfection analysis, 700 μL of tobacco protoplasts (prepared as described above) were mixed with 30 μL 2 M KCl and plasmid DNA in an electroporation cuvette with 0.4-cm electrode gap. […]
as §1

[1] = system: potato ga20ox1 promoter (P1, P2, P3) and first intron; assay: Gel retardation assay with ga20ox1 promoter regions and first intron; type: binding
Excerpt: The first intron with partial flanking exon sequence (450 bp) of potato ga20ox1 and its promoter (981 bp, provided by Dr. Salomé Prat, CSIC Cantoblanco Campus, Univ. of Madrid, Spain) were used for gel mobility shift assays. Polymerase chain reaction (PCR) was used to amplify three regions of the promoter: -981 to 636 (P1), -660 to 307 (P2), and -331 to 0 (P3). About a 25-bp overlap was maintained between P1 and P2 or P2 and P3 in the chance that the protein-binding site would span the overlapped region. The first intron of this gene was amplified from potato genomic DNA by using PCR and the oligos 5′-[…]-3′ (SEQ ID NO:21) and 5′-[…]-3′ (SEQ ID NO:22) as primers. These primers were designed based on the site of the first intron of the tobacco GA20 oxidase gene Ntc12. The four fragments were purified on a 1.4% agarose gel and labeled with α^32P-dATP using Klenow fragment. […]
In the competition assays, unlabeled double-stranded DNA fragments (10×, 25×, 50×, 100×) were incubated with the recombinant protein before the addition of the radioactive probe. The dissociation rates were determined by adding 500-fold more cold DNA fragments to the DNA-binding reactions that were being incubated on ice, and loaded onto the running gel every 10 minutes. […]

POTH1 = assay: In vitro binding assay (immunoprecipitation) with POTH1; set-up: species or system Solanum tuberosum; settings: in vitro
Description: In vitro binding experiments were performed as described by Ni et al., “PIF3, a Phytochrome-Interacting Factor Necessary for Normal Photoinduced Signal Transduction, is a Novel Basic Helix-Loop-Helix Protein,” Cell 95:657-667 (1998), which is hereby incorporated by reference in its entirety. The full-length sequence for POTH1 was cloned into a pET17b/GAD fusion cassette and transcribed under the control of the T7 promoter. […] Each 50 μl TnT reaction contained 2.0 μg of template plasmid DNA and 20 μmol (20 μCi) of labeled ^35S-methionine. The POTH1:GAD/BEL complex was immunoprecipitated with anti-GAD antibodies (Santa Cruz Biotechnology, Calif.). The proteins from the pellet (one-half the fraction) and for the prey (one-fourth of the reaction volume) were resolved on a 10% SDS-PAGE gel and visualized by autoradiography.

B1: POTH1: KNOX transcription factor of potato, SEQ ID NO:17, 345 residues (protein, listed as Solanum tuberosum)
chain: MDDEMYGFHSTRDDYADKALMSPENLMMQTEYNNFHNYTNSSILTSNPMMFGSDDIQLSSEQTNSFSTMTLQNNDNIYQIRSGNCGGGSGSGGSSKDHNDNNNNNEDYDEDGSNVIKAKIVSHPYYPKLLNAYIDCQKVGAPAGIVNLLEEIRQQTDFRKPNATSICIGADPELDEFMETYCDILLKYKSDLSRPFDEATTFLNKIEMQLGNLCKDDGGVSSDEELSCGEADASMRSEDNELKDRLLRKFGSHLSSLKLEFSKKKKKGKLPKEARQMLLAWWDDHFRWPYPTEADKNSLAESTGLDPKQINNWFINQRKRHWKPSENMQLAVMDNLSSQFFSSDD
- relative GUS-LUC activity of the pGAOP::GUS reporter construct (ga20ox1 promoter; co-transfected effector, reporter alone = 100%): decreased by more than half
- repression of promoter activity, reporter with point mutation in the binding site (ga20ox1 promoter; mutated ga20ox1 promoter): no detectable repression
- effect on the activity of the CaMV 35S promoter (CaMV 35S promoter): Neither StBEL-05 nor POTH1 showed any effect
- binding to ga20ox1 regulatory regions (mobility shift) [1]: only formed a complex with P1
- homodimer formation (POTH1): did not form homodimers in vitro
